Patent publication US20210032365A1 (Chugai, published 2021)

T1: human C1s (human, UniProt P09871 16-688)
T1 construct: Analyte in the Biacore assays; also called hC1s; serum-derived human C1s (CompTech)
T1 sequence: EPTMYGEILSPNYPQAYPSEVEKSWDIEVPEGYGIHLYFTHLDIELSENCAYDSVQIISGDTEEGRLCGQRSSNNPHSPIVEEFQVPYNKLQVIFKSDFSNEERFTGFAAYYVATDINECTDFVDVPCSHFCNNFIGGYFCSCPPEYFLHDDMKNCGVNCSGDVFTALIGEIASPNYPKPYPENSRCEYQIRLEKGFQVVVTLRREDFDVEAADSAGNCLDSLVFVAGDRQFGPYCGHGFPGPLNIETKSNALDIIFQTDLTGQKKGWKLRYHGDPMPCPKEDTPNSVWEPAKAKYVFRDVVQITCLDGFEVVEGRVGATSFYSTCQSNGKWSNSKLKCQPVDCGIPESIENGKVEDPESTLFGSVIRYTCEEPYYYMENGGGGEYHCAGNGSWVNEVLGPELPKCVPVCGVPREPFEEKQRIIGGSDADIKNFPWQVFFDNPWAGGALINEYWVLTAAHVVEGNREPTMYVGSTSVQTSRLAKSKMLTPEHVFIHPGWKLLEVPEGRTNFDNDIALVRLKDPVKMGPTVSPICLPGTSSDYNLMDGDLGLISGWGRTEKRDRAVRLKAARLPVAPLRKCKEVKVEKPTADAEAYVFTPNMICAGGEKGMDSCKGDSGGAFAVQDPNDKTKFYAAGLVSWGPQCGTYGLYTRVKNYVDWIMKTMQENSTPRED


Tests used:
human C1s [1] = biological target: T1, human C1s; test: SPR (Biacore T200, 37C), Ab captured on protein A/G, serum C1s 50 and 200 nM; pH 5.8, 1.2 mM Ca
Protocol: (§1) The binding affinity of all histidine-substituted variants at pH 7.4 and pH 5.8 were determined at 37 degrees C. using Biacore T200 instrument (GE Healthcare). Recombinant Protein A/G (Pierce) was immobilized onto all flow cells of a CM4 sensor chip using amine coupling kit (GE Healthcare). Antibodies and analytes were prepared in 7(+) buffer (20 mM ACES, 150 mM NaCl, 1.2 mM CaCl2, 0.05% Tween 20, 0.005% NaN3, pH 7.4) or 5(+) buffer (20 mM ACES, 150 mM NaCl, 1.2 mM CaCl2), 0.05% Tween 20, 0.005% NaN3, pH 5.8). Each antibody was captured onto the sensor surface by protein A/G. Antibody capture levels were aimed at 200 resonance unit (RU). […] Sensor surface was regenerated each cycle with 10 mM Glycine-HCl pH 1.5. […] An additional dissociation phase at pH 5.8 was integrated immediately after the dissociation phase at pH 7.4. This dissociation rate in 5(+) buffer was determined by processing and fitting data using Scrubber 2.0 (BioLogic Software) curve fitting software.

human C1s [2] = biological target: T1, human C1s; test: SPR (Biacore T200, 37C), Ab captured on protein A/G, serum C1s 12.5 and 50 nM; pH 7.4, 1.2 mM Ca
Protocol: as §1

human C1s [3] = biological target: T1, human C1s; test: SPR; KD at pH 5.8 over KD at pH 7.4, both 1.2 mM Ca
Protocol: as §1, with “software. […]” for “software.”

human C1s [4] = biological target: T1, human C1s; test: SPR; koff (5.8+ of 775+): extra dissociation phase at pH 5.8 (1.2 mM Ca) right after the pH 7.4 dissociation, Scrubber fit
Protocol: as §1

human C1s [5] = biological target: T1, human C1s; test: SPR (Biacore T200, 37C), Ab captured on protein A/G, serum C1s 200 and 800 nM; pH 5.8, 1.2 mM Ca
Protocol: as §1

human C1s [6] = biological target: T1, human C1s; test: SPR (Biacore T200, 37C), Ab captured on protein A/G, serum C1s 200 and 800 nM; pH 5.8, 1.2 mM Ca; value marked 'Not Adopted due to low binding response at pH 5.8'
Protocol: as §1

Kd (human C1s [1]) [nM] | Kd (human C1s [2]) [nM] | koff (human C1s [2]) [s⁻¹] | KD (5.8+)/KD (7.4+) (human C1s [3]) | koff (human C1s [4]) [s⁻¹] | Kd (human C1s [5]) [nM] | koff (human C1s [5]) [s⁻¹] | kon (human C1s [5]) [M⁻¹ s⁻¹] | Kd (human C1s [6]) [nM] | koff (human C1s [6]) [s⁻¹] | Binder
2.48 | 2.77 | 0.000628 | 0.9 | 0.000691 | – | – | – | – | – | IPN009VH2/IPN93L0023-SG136 (antibody, human IgG1, kappa, name in Kabat numbering, also called IPN009VH2/IPN93L0023 (lot PPU2043)) heavy: EVMLVESGGGLVKPGGSLRLSCAASGFTFSNYAMSWVRQAPGKGLEWVATISSGGSHTYYLDSVKGRFTISRDNSKDTLYLQMNSLRAEDTALYYCARLFTGYAMDYWGQGTLVTVSSASTKGPSVFPLAPSSKSTSGGTAALGCLVKDYFPEPVTVSWNSGALTSGVHTFPAVLQSSGLYSLSSVVTVPSSSLGTQTYICNVNHKPSNTKVDKKVEPKSCDKTHTCPPCPAPELRRGPSVFLFPPKPKDTLMISRTPEVTCVVVDVSHEDPEVKFNWYVDGVEVHNAKTKPREEQYNSTYRVVSVLTVLHQDWLNGKEYKCKVSNKGLPSSIEKTISKAKGQPREPQVYTLPPSREEMTKNQVSLTCLVKGFYPSDIAVEWESNGQPENNYKTTPPVLDSDGSFFLYSKLTVDKSRWQQGNVFSCSVMHEALHNHYTQKSLSLSP light: QIVLTQSPATLSLSPGERATLSCTASSSVSSSYLHWYQQKPGKAPKLWIYSTSNLASGVPSRFSGSGSGTDYTLTISSLQPEDFATYYCHQYYRHPPITFGQGTKLEIKRTVAAPSVFIFPPSDEQLKSGTASVVCLLNNFYPREAKVQWKVDNALQSGNSQESVTEQDSKDCTYSLSSTLTLSKADYEKHKVYACEVTHQGLSSPVTKSFNRGEC
– | 2.02 | 0.000645 | 60.9 | 0.0247 | 123 | 0.0267 | 217000 | – | – | IPN92H0281/IPN93L0024-SG136 (antibody, human IgG1, kappa, name in Kabat numbering, also called IPN92H0281/IPN93L0024 (lot PPU2047); IPN92H281/IPN93L0024-SG136) heavy: EVMLVESGGGLVKPGGSLRLSCAASGFTFSNYAMSWVRQAPGKGLEWVATISSGGSKTYELDSVDERFTISRDNSKDTLYLQMNSLRAEDTALYYCARLFTKHAMDYWGQGTLVTVSSASTKGPSVFPLAPSSKSTSGGTAALGCLVKDYFPEPVTVSWNSGALTSGVHTFPAVLQSSGLYSLSSVVTVPSSSLGTQTYICNVNHKPSNTKVDKKVEPKSCDKTHTCPPCPAPELRRGPSVFLFPPKPKDTLMISRTPEVTCVVVDVSHEDPEVKFNWYVDGVEVHNAKTKPREEQYNSTYRVVSVLTVLHQDWLNGKEYKCKVSNKGLPSSIEKTISKAKGQPREPQVYTLPPSREEMTKNQVSLTCLVKGFYPSDIAVEWESNGQPENNYKTTPPVLDSDGSFFLYSKLTVDKSRWQQGNVFSCSVMHEALHNHYTQKSLSLSP light: QIVLTQSPATLSLSPGERATLSCTASSSVSSSYLHWYQQKPGKAPKLWIYSTSNLASGVPSRFSGSGSGTDYTLTISSLQPEDFATYYCHQYYRLHPITFGQGTKLEIKRTVAAPSVFIFPPSDEQLKSGTASVVCLLNNFYPREAKVQWKVDNALQSGNSQESVTEQDSKDCTYSLSSTLTLSKADYEKHKVYACEVTHQGLSSPVTKSFNRGEC
– | 1.43 | 0.000822 | – | 0.0134 | – | – | – | 8530 | 0.0237 | IPN92H0286/IPN93L0205-SG136 (antibody, human IgG1, kappa, name in Kabat numbering, also called IPN92H0286/IPN93L0205 (lot PPU2048); IPN92H0286/IPN93L205-SG136) heavy: EVMLVESGGGLVKPGGSLRLSCAASGFTFSNKAMSWVRQAPGKGLEWVATISSGGSHTYYLDSVKHRFTISRDNSKDTLYLQMNSLRAEDTALYYCARLFTGHAMDYWGQGTLVTVSSASTKGPSVFPLAPSSKSTSGGTAALGCLVKDYFPEPVTVSWNSGALTSGVHTFPAVLQSSGLYSLSSVVTVPSSSLGTQTYICNVNHKPSNTKVDKKVEPKSCDKTHTCPPCPAPELRRGPSVFLFPPKPKDTLMISRTPEVTCVVVDVSHEDPEVKFNWYVDGVEVHNAKTKPREEQYNSTYRVVSVLTVLHQDWLNGKEYKCKVSNKGLPSSIEKTISKAKGQPREPQVYTLPPSREEMTKNQVSLTCLVKGFYPSDIAVEWESNGQPENNYKTTPPVLDSDGSFFLYSKLTVDKSRWQQGNVFSCSVMHEALHNHYTQKSLSLSP light: QIVLTQSPATLSLSPGERATLSCTASSSVSSSRLHWYQQKPGKAPKLWIYSTSNLASGVPSRFSGSGSGTDYTLTISSLQPEDFATYYCHQYHRHPPITFGQGTKLEIKRTVAAPSVFIFPPSDEQLKSGTASVVCLLNNFYPREAKVQWKVDNALQSGNSQESVTEQDSKDCTYSLSSTLTLSKADYEKHKVYACEVTHQGLSSPVTKSFNRGEC
10.7 | 1.2 | 0.000461 | 8.9 | 0.00354 | – | – | – | – | – | IPN92H0038/IPN93L0024-SG136 (antibody, human IgG1, kappa, name in Kabat numbering, also called IPN92H0038/IPN93L0024 (lot PPU2045)) heavy: EVMLVESGGGLVKPGGSLRLSCAASGFTFSNYAMSWVRQAPGKGLEWVATISSGGSHTYYLDSVKHRFTISRDNSKDTLYLQMNSLRAEDTALYYCARLFTGHAMDYWGQGTLVTVSSASTKGPSVFPLAPSSKSTSGGTAALGCLVKDYFPEPVTVSWNSGALTSGVHTFPAVLQSSGLYSLSSVVTVPSSSLGTQTYICNVNHKPSNTKVDKKVEPKSCDKTHTCPPCPAPELRRGPSVFLFPPKPKDTLMISRTPEVTCVVVDVSHEDPEVKFNWYVDGVEVHNAKTKPREEQYNSTYRVVSVLTVLHQDWLNGKEYKCKVSNKGLPSSIEKTISKAKGQPREPQVYTLPPSREEMTKNQVSLTCLVKGFYPSDIAVEWESNGQPENNYKTTPPVLDSDGSFFLYSKLTVDKSRWQQGNVFSCSVMHEALHNHYTQKSLSLSP light: QIVLTQSPATLSLSPGERATLSCTASSSVSSSYLHWYQQKPGKAPKLWIYSTSNLASGVPSRFSGSGSGTDYTLTISSLQPEDFATYYCHQYYRLHPITFGQGTKLEIKRTVAAPSVFIFPPSDEQLKSGTASVVCLLNNFYPREAKVQWKVDNALQSGNSQESVTEQDSKDCTYSLSSTLTLSKADYEKHKVYACEVTHQGLSSPVTKSFNRGEC
